# Test results published in the supplement of paper PMC7125110.
# ± gives the standard error. Fewer inactive variants are shown than the library holds.
# B1: glmS ribozyme (parent)
# chain: AUAAAAGCGCCAGAACUACAGAAAUGUAGUUGACGAGGAGGAGGUUUAUCGAAUUUUCGGCGGAUGCCUCCAAA
# Variants of: B1
# Assay: self-cleavage kobs at 2500 uM GlcN6P; higher = faster cleavage; RNA array
# Conditions: with glucosamine-6-phosphate
# How it was run: (§1)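 Barcoded ribozyme variants on sequenced MiSeq chips were transcribed in situ by E. coli RNA polymerase and followed at 37 °C through a hybridised Cy3 probe. Glucosamine-6-phosphate at 40 μM to 10 mM in HEPES/KCl/Mg(OAc)2 buffer was flowed in, and tiles were imaged over ~14 h. Signals were normalised to baseline and to non-cleaving reference variants, and per-tile medians were fit to one- or two-exponential decays to give kobs. Weighted Michaelis–Menten fits across concentrations gave kcat and KM.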
row,Variant,self-cleavage kobs at 2500 uM GlcN6P
1,G38A G44C,< 1e-05 s⁻¹
2,G32C G35C U56C,< 1e-05 s⁻¹
3,A33C G40A A48C G51C G60C,< 1e-05 s⁻¹
4,A6G U30C C34U,< 1e-05 s⁻¹
5,A12U A14G G32U,0.000861 ± 0.00015 s⁻¹
6,U30A U47C,0.000476 ± 9.7e-05 s⁻¹
7,C11U U46A G62U,< 1e-05 s⁻¹
8,C10A C11U C70A,0.000126 ± 4.3e-05 s⁻¹
9,G13A G44U U45A U57A U69C,< 1e-05 s⁻¹
10,A42G G44C C58A C68U,< 1e-05 s⁻¹
11,A15U A48G G51U,< 1e-05 s⁻¹
12,G7U C16G A48U,< 1e-05 s⁻¹
13,A15G G44U U54C,0.00016 ± 3.1e-05 s⁻¹
14,C34U G35A G44C U54A U65G,< 1e-05 s⁻¹
15,A6C A14G G35A U57A G66C C68U,< 1e-05 s⁻¹
16,C16U A53U A64U,4.5e-05 ± 2.3e-05 s⁻¹
17,G7C G13U G43C G66U,< 1e-05 s⁻¹
18,A6C A12G A15G,< 1e-05 s⁻¹
19,A12C G29A U45G U46C,0.000151 ± 5.3e-05 s⁻¹
20,A39U G41C A52U,< 1e-05 s⁻¹
21,A52G G62A G63U U69G,0.000139 ± 4.7e-05 s⁻¹

row,Variant,self-cleavage kobs at 2500 uM GlcN6P
1,A12C A15U U46A C71A,< 1e-05 s⁻¹
2,C16U C34G C50G,0.00012 ± 5e-05 s⁻¹
3,G43U U47C G63A,< 1e-05 s⁻¹
4,U47A A53U U65A,0.00126 ± 0.00036 s⁻¹
5,A48G C58G G63A C70A,7.77e-05 ± 3.7e-05 s⁻¹
6,A33U A39C G62C,< 1e-05 s⁻¹
7,G32U G38U C67U,< 1e-05 s⁻¹
8,A14C C16U G43C,< 1e-05 s⁻¹
9,A33G G44A U49G,< 1e-05 s⁻¹
10,A14C A39C U65G,< 1e-05 s⁻¹
11,G7A G13A U30C C34U C70U,< 1e-05 s⁻¹
12,G13C G43C U57G,< 1e-05 s⁻¹
13,G29U C34U U55G C67U,< 1e-05 s⁻¹
14,C10U C58A C71U,< 1e-05 s⁻¹
15,C11A A14C A42C U55C A64G,< 1e-05 s⁻¹
16,C16A A39C A42U G51C C61G,< 1e-05 s⁻¹
17,C8A C10U G35A G38A C68U,4.94e-05 ± 1.7e-05 s⁻¹
18,U30G U46G C58U,< 1e-05 s⁻¹
19,G9C C34U A53U,< 1e-05 s⁻¹
20,A12U A33U G37U U56A,< 1e-05 s⁻¹
21,G32C U65G C68G,< 1e-05 s⁻¹

# Variants of: B1
# Assay: self-cleavage kobs at 10000 uM GlcN6P; higher = faster cleavage; RNA array
# Conditions: with glucosamine-6-phosphate
# How it was run: as §1
row,Variant,self-cleavage kobs at 10000 uM GlcN6P
1,G38A G44C,< 1e-05 s⁻¹
2,A12U A14G G32U,0.00275 ± 0.00043 s⁻¹
3,U30A U47C,0.000396 ± 9.1e-05 s⁻¹
